# Biological target: interleukin-6 (IL-6) (human) (UniProt P05231)
# Assay: SPR; IL-6 amine-coupled on a CM5 chip (Biacore T200); analytes in multi-cycle kinetics, 0.39 to 100 nM, 30 µL/min, 180 s association, 1200 s dissociation, HBS-N + 10 mM CaCl2; global fit, 1:1 model; where koff was below the detection limit KD was estimated from kon and the theoretical maximum koff
# Sequence of interleukin-6 (IL-6) (human) (P05231 30-212): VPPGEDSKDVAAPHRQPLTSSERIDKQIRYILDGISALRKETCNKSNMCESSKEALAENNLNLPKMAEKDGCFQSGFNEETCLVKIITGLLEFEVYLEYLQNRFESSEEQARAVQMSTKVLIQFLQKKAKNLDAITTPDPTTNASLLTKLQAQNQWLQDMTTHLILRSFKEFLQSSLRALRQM
Substance,Kd,koff,kon
sIL-6R-TGN 1:5 (from UniProt P08887 20-355) (receptor),428 nM,,
soluble IL-6 receptor (sIL-6R) (from UniProt P08887 20-355),131 nM,0.035 s⁻¹,248000 M⁻¹ s⁻¹

# From article PMC13083842
